Measured values published in patent US6602850B1, “Method of treating asthma using soluble IL-9 receptor variants” (Genaera Corporation, priority 1996, dated 2003).

Key:
Jak-Stat pathway = test: Tyrosine phosphorylation of Jak, Stat and Irs family members in TS1 cells expressing human IL-9 receptor variants, after IL-9 stimulation; assay type: cell-based; conditions: TS1 cells expressing the receptor form, starved 6 hours, treated 5 minutes with human or murine IL-9 (100 ng/ml), FIG. 15
Description: (§1) To determine growth response of TS1 cells expressing various forms of human IL-9 receptor, cells were washed with PBS and resuspended in D-MEM, 10% fetal bovine serum. 10^3 cells per well were seeded in triplicate in 96-well microplates and, where appropriate, recombinant human IL-9 or murine IL-9 (R&D Systems, Minneapolis, Minn.) was added at a final concentration of 5 ng/ml. Cell proliferation was evaluated after 7 days using an acid phosphatase assay. Briefly, 50 μl of a buffer containing 0.1 M sodium acetate (pH 5.5), 0.1% Triton X-100 and 10 mM p-nitrophenyl phosphate (Sigma 104 phosphatase substrate) was added per well. The plate was incubated for 1-½ hours at room temperature, the reaction stopped with 10 μl/well of 1N sodium hydroxide and the absorbance was read on a Dynatech Model MR600 at 410 nm. To analyze tyrosine-phosphorylation of proteins of the signal transduction cascade upon cytokine stimulation, TS1 cells expressing various forms of human IL-9 receptor were washed with PBS, resuspended in D-MEM, 0.5% bovine serum albumin, and incubated for 6 hours at 37° C. Successively, 20×10^6 cells were treated for 5 minutes with either human IL-9 or murine IL-9 (100 ng/ml) and immediately washed in cold PBS. Cells were lysed in RIPA buffer as described in Example 11.
Typically, 20-50×10^6cells were lysed in 1 ml of RIPA buffer (PBS containing 1% NP40, 0.5% sodium deoxycholate, 0.1% SDS, 1 mM PMSF, 50 mM sodium fluoride, […] sodium orthovanadate, and 1× “Complete” protease inhibitors mixture, Cat. No. 1697498 Boehringer Mannheim) and incubated for 45 minutes on ice. Lysates were centrifuged for 20 minutes in an Eppendorf microcentrifuge and the supernatant recovered and transferred to a fresh tube. For immunoprecipitations, 1-5 μg of the antibody were added to the lysate and incubated overnight at 4° C. […] Proteins were transferred onto Immobilion-P membrane (Millipore) and detected using a horseradish peroxidase-conjugated secondary antibody followed by a chemiluminescence detection assay (Pierce). […]

TS1 cells = test: Proliferation of TS1 cells expressing different forms of human IL-9 receptor (acid phosphatase assay); assay type: cell-based, murine; conditions: TS1 cells expressing the receptor form, IL-9 5 ng/ml, 7 days, FIG. 16
Description: as §1

[1] = listed as splice variant of the IL-9R

B1: ΔQ173 variant: splice variant of the IL-9R wherein the glutamine residue at position 173 of the precursor protein has been deleted (SEQ ID NO 3) (protein)
chain: SVTGEGQGPRSRTFTCLTNNILRIDCHWSAPELGQGSSPWLLFTSNQAPGGTHKCILRGSECTVVLPPEAVLVPSDNFTITFHHCMSGREQVSLVDPEYLPRRHVKLDPPSDLQSNISSGHCILTWSISPALEPMTTLLSYELAFKKQEEAWEAQHRDHIVGVTWLILEAFELDPGFIHEARLRVQMATLEDDVVEEERYTGQWSEWSQPVCFQAPQRQGPLIPPWGWPGNTLVAVSIFLLLTGPTYLLFKLSPRVKRIFYQNVPSPAMFFQPLYSVHNGNFQTWMGAHRAGVLLSQDCAGTPQGALEPCVQEATALLTCGPARPWKSVALEEEQEGPGTRLPGNLSSEDVLPAGCTEWRVQTLAYLPQEDWAPTSLTRPAPPDSEGSRSSSSSSSSSNNNNYCALGCYGGWHLSALPGNTQSSGPIPALACGLSCDHQGLETQQGVAWVLAGHCQRPGLHEDLQGMLLPSVLSKARSWTF
- activation (tyrosine phosphorylation) of proteins of the Jak-Stat pathway (Jak-Stat pathway): could not activate any proteins in the Jak-Stat pathway
- activation (tyrosine phosphorylation) of proteins of the Jak-Stat pathway (Jak-Stat pathway; [1]): not able to transcribe a signal through the Jak-Stat pathway
- cellular proliferation upon IL-9 stimulation (TS1 cells): could not support cellular proliferation upon IL-9 stimulation
- cellular proliferation upon IL-9 stimulation (TS1 cells; [1]): unable to induce cellular proliferation upon stimulation with IL-9

B2: IL-9R: wild type human IL-9 receptor, Arg allele at codon 344 with 8 Ser/4 Asn repeats (SEQ ID NO 1) (protein)
chain: SVTGEGQGPRSRTFTCLTNNILRIDCHWSAPELGQGSSPWLLFTSNQAPGGTHKCILRGSECTVVLPPEAVLVPSDNFTITFHHCMSGREQVSLVDPEYLPRRHVKLDPPSDLQSNISSGHCILTWSISPALEPMTTLLSYELAFKKQEEAWEQAQHRDHIVGVTWLILEAFELDPGFIHEARLRVQMATLEDDVVEEERYTGQWSEWSQPVCFQAPQRQGPLIPPWGWPGNTLVAVSIFLLLTGPTYLLFKLSPRVKRIFYQNVPSPAMFFQPLYSVHNGNFQTWMGAHRAGVLLSQDCAGTPQGALEPCVQEATALLTCGPARPWKSVALEEEQEGPGTRLPGNLSSEDVLPAGCTEWRVQTLAYLPQEDWAPTSLTRPAPPDSEGSRSSSSSSSSSNNNNYCALGCYGGWHLSALPGNTQSSGPIPALACGLSCDHQGLETQQGVAWVLAGHCQRPGLHEDLQGMLLPSVLSKARSWTF
- activation (tyrosine phosphorylation) of proteins of the Jak-Stat pathway (Jak-Stat pathway): all of the proteins of the pathway including Jak3 and Irs1 were phophoralated
